Results published in the supplement of paper PMC5998384.

Key:
HeLa Kyoto [1] = test: solubility in G1/S (NP-40 vs SDS abundance) (log2 ratio); higher = more soluble; conditions: cell cycle stage: G1/S
HeLa Kyoto [2] = test: melting temperature (median over replicates), in situ; higher = more thermally stable
HeLa Kyoto [3] = test: solubility change mitosis vs G1/S (difference of NP-40 vs SDS log2 ratios) (log2 ratio difference); higher = more soluble in mitosis
HeLa Kyoto [4] = test: thermal stability score vs G1/S (z-score of summed log2 fold changes over temperatures); higher = more thermally stable than in G1/S
[5] = cell cycle stage: early G1 (4.5 h after nocodazole release)
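Wherever melting temperature (median over replicates), in situ is given: HeLa Kyoto cells synchronized by double thymidine or nocodazole block, proteins quantified by TMT10plex mass spectrometry, three independent biological replicates.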
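Wherever solubility change mitosis vs G1/S (difference of NP-40 vs SDS log2 ratios) is given: synchronized HeLa Kyoto cells (double thymidine block for G1/S, nocodazole release for mitosis), protein amounts in NP-40 versus SDS lysates quantified by mass spectrometry, three biological replicates.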
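Wherever solubility in G1/S (NP-40 vs SDS abundance) is given: HeLa Kyoto cells arrested at G1/S by double thymidine block, proteins quantified by TMT10plex mass spectrometry in mild NP-40 versus SDS extracts, three biological replicates.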
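Wherever thermal stability score vs G1/S (z-score of summed log2 fold changes over temperatures) is given: synchronized HeLa Kyoto cells, proteins quantified by TMT10plex mass spectrometry, three biological replicates, mitosis taken 0.5 h after nocodazole release, G1/S directly after double thymidine block.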

Sequence of MAP7D1 (chain, as listed by the source): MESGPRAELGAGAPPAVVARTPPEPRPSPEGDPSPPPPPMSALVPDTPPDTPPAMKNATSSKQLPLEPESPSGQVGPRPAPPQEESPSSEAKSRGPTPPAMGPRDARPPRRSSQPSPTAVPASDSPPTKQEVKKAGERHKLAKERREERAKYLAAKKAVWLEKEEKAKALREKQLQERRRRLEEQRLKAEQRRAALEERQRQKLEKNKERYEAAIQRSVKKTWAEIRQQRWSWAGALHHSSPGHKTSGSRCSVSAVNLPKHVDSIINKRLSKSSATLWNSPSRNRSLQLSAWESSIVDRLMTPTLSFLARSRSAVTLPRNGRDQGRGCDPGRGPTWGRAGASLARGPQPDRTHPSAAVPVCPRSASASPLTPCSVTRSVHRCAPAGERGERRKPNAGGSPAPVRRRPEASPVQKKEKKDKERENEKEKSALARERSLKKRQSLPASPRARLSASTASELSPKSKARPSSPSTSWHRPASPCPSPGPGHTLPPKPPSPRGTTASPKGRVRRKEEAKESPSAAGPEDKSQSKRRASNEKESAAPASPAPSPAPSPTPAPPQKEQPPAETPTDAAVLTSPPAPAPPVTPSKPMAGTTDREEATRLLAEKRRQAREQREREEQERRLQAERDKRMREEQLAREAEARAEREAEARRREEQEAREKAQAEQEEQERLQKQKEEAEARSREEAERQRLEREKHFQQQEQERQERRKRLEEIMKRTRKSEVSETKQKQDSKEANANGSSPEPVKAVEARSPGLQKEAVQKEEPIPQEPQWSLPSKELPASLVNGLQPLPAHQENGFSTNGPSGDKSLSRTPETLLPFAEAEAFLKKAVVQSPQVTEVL

| Substance | solubility in G1/S (log2) (HeLa Kyoto [1]) | melting temperature (HeLa Kyoto [2]; cell cycle stage: G1/S) | melting temperature (HeLa Kyoto [2]; cell cycle stage: mitosis) | solubility change mitosis (log2) (HeLa Kyoto [3]) | thermal stability score (HeLa Kyoto [4]; [5]) | thermal stability score (HeLa Kyoto [4]; cell cycle stage: mitosis) |
| --- | --- | --- | --- | --- | --- | --- |
| MANVPWAEVCEKFQAALALSRVELHKNPEKEPYKSKYSARALLEEVKALLGPAPEDEDERPEAEDGPGAGDHALGLPAEVVEPEGPVAQRAVRLAVIEFHLGVNHIDTEELSAGEEHLVKCLRLLRRYRLSHDCISLCIQAQNNLGILWSEREEIETAQAYLESSEALYNQYMKEVGSPPLDPTERFLPEEEKLTEQERSKRFEKVYTHNLYYLAQVYQHLEMFEKAAHYCHSTLKRQLEHNAYHPIEWAINAATLSQFYINKLCFMEARHCLSAANVIFGQTGKISATEDTPEAEGEVPELYHQRKGEIARCWIKYCLTLMQNAQLSMQDNIGELDLDKQSELRALRKKELDEEESIRKKAVQFGTGELCDAISAVEEKVSYLRPLDFEEARELFLLGQHYVFEAKEFFQIDGYVTDHIEVVQDHSALFKVLAFFETDMERRCKMHKRRIAMLEPLTVDLNPQYYLLVNRQIQFEIAHAYYDMMDLKVAIADRLRDPDSHIVKKINNLNKSALKYYQLFLDSLRDPNKVFPEHIGEDVLRPAMLAKFRVARLYGKIITADPKKELENLATSLEHYKFIVDYCEKHPEAAQEIEVELELSKEMVSLLPTKMERFRTKMALT [KIF1BP] | 0.141 | 49 °C | 49 °C | -0.161 | 0.769 | 2.03 |
| MAP7D1 | 0.337 | 52.8 °C | 51.2 °C | 0.536 | -1.09 | -4.66 |
| MAPARCFSARLRTVFQGVGHWALSTWAGLKPSRLLPQRASPRLLSVGRADLAKHQELPGKKLLSEKKLKRYFVDYRRVLVCGGNGGAGASCFHSEPRKEFGGPDGGDGGNGGHVILRVDQQVKSLSSVLSRYQGFSGEDGGSKNCFGRSGAVLYIRVPVGTLVKEGGRVVADLSCVGDEYIAALGGAGGKGNRFFLANNNRAPVTCTPGQPGQQRVLHLELKTVAHAGMVGFPNAGKSSLLRAISNARPAVASYPFTTLKPHVGIVHYEGHLQIAVADIPGIIRGAHQNRGLGSAFLRHIERCRFLLFVVDLSQPEPWTQVDDLKYELEMYEKGLSARPHAIVANKIDLPEAQANLSQLRDHLGQEVIVLSALTGENLEQLLLHLKVLYDAYAEAELGQGRQPLRW [MTG2] | 0.239 | 49.6 °C | 49.1 °C | 0.00581 | -0.446 | 0.103 |
| MAPDPVAAETAAQGPTPRYFTWDEVAQRSGCEERWLVIDRKVYNISEFTRRHPGGSRVISHYAGQDATDPFVAFHINKGLVKKYMNSLLIGELSPEQPSFEPTKNKELTDEFRELRATVERMGLMKANHVFFLLYLLHILLLDGAAWLTLWVFGTSFLPFLLCAVLLSAVQAQAGWLQHDFGHLSVFSTSKWNHLLHHFVIGHLKGAPASWWNHMHFQHHAKPNCFRKDPDINMHPFFFALGKILSVELGKQKKKYMPYNHQHKYFFLIGPPALLPLYFQWYIFYFVIQRKKWVDLAWMITFYVRFFLTYVPLLGLKAFLGLFFIVRFLESNWFVWVTQMNHIPMHIDHDRNMDWVSTQLQATCNVHKSAFNDWFSGHLNFQIEHHLFPTMPRHNYHKVAPLVQSLCAKHGIEYQSKPLLSAFADIIHSLKESGQLWLDAYLHQ [FADS1] | -0.124 | 51.9 °C | 51.3 °C | -0.092 | -0.752 | -0.737 |
| MAPHDPGSLTTLVPWAAALLLALGVERALALPEICTQCPGSVQNLSKVAFYCKTTRELMLHARCCLNQKGTILGLDLQNCSLEDPGPNFHQAHTTVIIDLQANPLKGDLANTFRGFTQLQTLILPQHVNCPGGINAWNTITSYIDNQICQGQKNLCNNTGDPEMCPENGSCVPDGPGLLQCVCADGFHGYKCMRQGSFSLLMFFGILGATTLSVSILLWATQRRKAKTS [ATRAID] | -0.19 | 53.9 °C | 54.8 °C | 0.252 | 0.782 | 0.854 |
| MAPLGGAPRLVLLFSGKRKSGKDFVTEALQSRLGADVCAVLRLSGPLKEQYAQEHGLNFQRLLDTSTYKEAFRKDMIRWGEEKRQADPGFFCRKIVEGISQPIWLVSDTRRVSDIQWFREAYGAVTQTVRVVALEQSRQQRGWVFTPGVDDAESECGLDNFGDFDWVIENHGVEQRLEEQLENLIEFIRSRL [PMVK] | -0.0155 | 46.6 °C | 47.8 °C | -0.0243 | 1.41 | 1.71 |
| MAPLLLQLAVLGAALAAAALVLISIVAFTTATKMPALHRHEEEKFFLNAKGQKETLPSIWDSPTKQLSVVVPSYNEEKRLPVMMDEALSYLEKRQKRDPAFTYEVIVVDDGSKDQTSKVAFKYCQKYGSDKVRVITLVKNRGKGGAIRMGIFSSRGEKILMADADGATKFPDVEKLEKGLNDLQPWPNQMAIACGSRAHLEKESIAQRSYFRTLLMYGFHFLVWFLCVKGIRDTQCGFKLFTREAASRTFSSLHVERWAFDVELLYIAQFFKIPIAEIAVNWTEIEGSKLVPFWSWLQMGKDLLFIRLRYLTGAWRLEQTRKMN [ALG5] | -0.514 | 53 °C | 53.8 °C | -0.147 | -0.322 | -1.32 |
| MAPRRVRSFLRGLPALLLLLLFLGPWPAASHGGKYSREKNQPKPSPKRESGEEFRMEKLNQLWEKAQRLHLPPVRLAELHADLKIQERDELAWKKLKLDGLDEDGEKEARLIRNLNVILAKYGLDGKKDARQVTSNSLSGTQEDGLDDPRLEKLWHKAKTSGKFSGEELDKLWREFLHHKEKVHEYNVLLETLSRTEEIHENVISPSDLSDIKGSVLHSRHTELKEKLRSINQGLDRLRRVSHQGYSTEAEFEEPRVIDLWDLAQSANLTDKELEAFREELKHFEAKIEKHNHYQKQLEIAHEKLRHAESVGDGERVSRSREKHALLEGRTKELGYTVKKHLQDLSGRISRARHNEL [LRPAP1] | 0.724 | 55.3 °C | 54.1 °C | -0.0876 | 2.72 | -0.375 |
| MAPSGLKAVVGEKILSGVIRSVKKDGEWKVLIMDHPSMRILSSCCKMSDILAEGITIVEDINKRREPIPSLEAIYLLSPTEKSVQALIKDFQGTPTFTYKAAHIFFTDTCPEPLFSELGRSRLAKVVKTLKEIHLAFLPYEAQVFSLDAPHSTYNLYCPFRAEERTRQLEVLAQQIATLCATLQEYPAIRYRKGPEDTAQLAHAVLAKLNAFKADTPSLGEGPEKTRSQLLIMDRAADPVSPLLHELTFQAMAYDLLDIEQDTYRYETTGLSEAREKAVLLDEDDDLWVELRHMHIADVSKKVTELLRTFCESKRLTTDKANIKDLSQILKKMPQYQKELNKYSTHLHLADDCMKHFKGSVEKLCSVEQDLAMGSDAEGEKIKDSMKLIVPVLLDAAVPAYDKIRVLLLYILLRNGVSEENLAKLIQHANVQAHSSLIRNLEQLGGTVTNPGGSGTSSRLEPRERMEPTYQLSRWTPVIKDVMEDAVEDRLDRNLWPFVSDPAPTASSQAAVSARFGHWHKNKAGIEARAGPRLIVYVMGGVAMSEMRAAYEVTRATEGKWEVLIGSSHILTPTRFLDDLKALDKKLEDIALP [STXBP2] | -0.0683 | 49.3 °C | 49.2 °C | -0.19 | 0.25 | 1.22 |
| MAPSGSLAVPLAVLVLLLWGAPWTHGRRSNVRVITDENWRELLEGDWMIEFYAPWCPACQNLQPEWESFAEWGEDLEVNIAKVDVTEQPGLSGRFIITALPTIYHCKDGEFRRYQGPRTKKDFINFISDKEWKSIEPVSSWFGPGSVLMSSMSALFQLSMWIRTCHNYFIEDLGLPVWGSYTVFALATLFSGLLLGLCMIFVADCLCPSKRRRPQPYPYPSKKLLSESAQPLKKVEEEQEADEEDVSEEEAESKEGTNKDFPQNAIRQRSLGPSLATDKS [TMX1] | -0.0895 | 54.7 °C | 55.9 °C | -0.034 | 0.556 | 1.24 |
| MAPWPPKGLVPAMLWGLSLFLNLPGPIWLQPSPPPQSSPPPQPHPCHTCRGLVDSFNKGLERTIRDNFGGGNTAWEEENLSKYKDSETRLVEVLEGVCSKSDFECHRLLELSEELVESWWFHKQQEAPDLFQWLCSDSLKLCCPAGTFGPSCLPCPGGTERPCGGYGQCEGEGTRGGSGHCDCQAGYGGEACGQCGLGYFEAERNASHLVCSACFGPCARCSGPEESNCLQCKKGWALHHLKCVDIDECGTEGANCGADQFCVNTEGSYECRDCAKACLGCMGAGPGRCKKCSPGYQQVGSKCLDVDECETEVCPGENKQCENTEGGYRCICAEGYKQMEGICVKEQIPESAGFFSEMTEDELVVLQQMFFGIIICALATLAAKGDLVFTAIFIGAVAAMTGYWLSERSDRVLEGFIKGR [CRELD1] | -0.215 | 53.8 °C | 53 °C | -0.0647 | 0.91 | 1.48 |
| MAPYSLLVTRLQKALGVRQYHVASVLCQRAKVAMSHFEPNEYIHYDLLEKNINIVRKRLNRPLTLSEKIVYGHLDDPASQEIERGKSYLRLRPDRVAMQDATAQMAMLQFISSGLSKVAVPSTIHCDHLIEAQVGGEKDLRRAKDINQEVYNFLATAGAKYGVGFWKPGSGIIHQIILENYAYPGVLLIGTDSHTPNGGGLGGICIGVGGADAVDVMAGIPWELKCPKVIGVKLTGSLSGWSSPKDVILKVAGILTVKGGTGAIVEYHGPGVDSISCTGMATICNMGAEIGATTSVFPYNHRMKKYLSKTGREDIANLADEFKDHLVPDPGCHYDQLIEINLSELKPHINGPFTPDLAHPVAEVGKVAEKEGWPLDIRVGLIGSCTNSSYEDMGRSAAVAKQALAHGLKCKSQFTITPGSEQIRATIERDGYAQILRDLGGIVLANACGPCIGQWDRKDIKKGEKNTIVTSYNRNFTGRNDANPETHAFVTSPEIVTALAIAGTLKFNPETDYLTGTDGKKFRLEAPDADELPKGEFDPGQDTYQHPPKDSSGQHVDVSPTSQRLQLLEPFDKWDGKDLEDLQILIKVKGKCTTDHISAAGPWLKFRGHLDNISNNLLIGAINIENGKANSVRNAVTQEFGPVPDTARYYKKHGIRWVVIGDENYGEGSSREHAALEPRHLGGRAIITKSFARIHETNLKKQGLLPLTFADPADYNKIHPVDKLTIQGLKDFTPGKPLKCIIKHPNGTQETILLNHTFNETQIEWFRAGSALNRMKELQQ [ACO2] | 0.183 | 51.3 °C | 51.3 °C | -0.179 | 0.706 | 0.579 |
| MAQAKINAKANEGRFCRSSSMADRSSRLLESLDQLELRVEALREAATAVEQEKEILLEMIHSIQNSQDMRQISDGEREELNLTANRLMGRTLTVEVSVETIRNPQQQESLKHATRIIDEVVNKFLDDLGNAKSHLMSLYSACSSEVPHGPVDQKFQSIVIGCALEDQKKIKRRLETLLRNIENSDKAIKLLEHSKGAGSKTLQQNAESRFN [BAG2] | 0.345 | 50.9 °C | 50.9 °C | 0.474 | -2.02 | -3.48 |
